Literature values as cited in US8420067B2, “Targeted polylysine dendrimer therapeutic agent” (Starpharma Pty Ltd, priority 2006, dated 2013).
Where two headings read alike, the source gives them in different places.

Substance	stability of the conjugate in acidic conditions (acidic conditions (pH 4-6))	stability of the conjugate in acidic conditions (pH 4)	stability of the conjugate in acidic conditions (pH 5)
α-methoxy-ω-{N-2-(3-hydroxypropyl-cholesterylcarbamate)-2-methyl-[1,3]dioxan-5-yl-amido}-polyethyleneglycol110	not stable		
α-methoxy-ω-{N-(2-cholesteryloxy-[1,3]dioxolan-4-yl)methylamido}-polyethyleneglycol110		moderately less stable	very stable
α-methoxy-ω-{N-(2-methyl-s-octadecyloxy-[1,3]dioxan-5-yl)-amido}-polyethyleneglycol110	not stable		
α-methoxy-ω-{N-(2-octadecyloxy-[1,3]dioxolan-4-yl)methylamido}-polyethyleneglycol110		good stability	good stability
